These are literature values, as cited in publication PMC3008546.

A word on the Kd: it is the constant that tells how readily two partners part at equilibrium.

The target of the series is DNA ligase IV BRCT (Homo sapiens) (UniProt P49917).
Chain of DNA ligase IV BRCT (Homo sapiens) (P49917 654-911): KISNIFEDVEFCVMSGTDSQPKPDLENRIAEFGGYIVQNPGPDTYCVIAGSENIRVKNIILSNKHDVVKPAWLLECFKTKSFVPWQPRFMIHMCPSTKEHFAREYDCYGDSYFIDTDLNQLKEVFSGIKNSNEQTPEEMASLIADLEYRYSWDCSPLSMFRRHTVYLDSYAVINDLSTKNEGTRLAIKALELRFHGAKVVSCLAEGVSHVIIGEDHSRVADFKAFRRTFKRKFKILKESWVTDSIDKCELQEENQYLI

Chain of XRCC4 (Q13426 266-336): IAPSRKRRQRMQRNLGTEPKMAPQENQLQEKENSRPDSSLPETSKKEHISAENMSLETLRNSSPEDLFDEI

With XRCC4 (from UniProt Q13426), the Kd is 1 nM.
